± gives the standard error. Variants at the floor of the assay were thinned out.
B1: glmS ribozyme (parent)
chain: AUAAAAGCGCCAGAACUACAGAAAUGUAGUUGACGAGGAGGAGGUUUAUCGAAUUUUCGGCGGAUGCCUCCAAA

Experiments:
Conditions in all cases: with glucosamine-6-phosphate
[1] = variants of: B1; test: self-cleavage kobs at 40 uM GlcN6P; higher = faster cleavage; RNA array
How it was run: (§1)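 Glucosamine-6-phosphate, from 40 μM to 10 mM in HEPES/KCl/Mg(OAc)2 buffer, was flowed over sequenced MiSeq chips carrying barcoded ribozyme variants transcribed in situ by E. coli RNA polymerase. A hybridised Cy3 probe tracked the variants at 37 °C as tiles were imaged over ~14 h. kobs, kcat and KM were obtained by fitting normalised per-tile medians to exponential decays and then applying weighted Michaelis–Menten fits across concentrations.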

[2] = variants of: B1; test: self-cleavage kobs at 640 uM GlcN6P; higher = faster cleavage; RNA array
How it was run: as §1

[3] = variants of: B1; test: self-cleavage kobs at 2500 uM GlcN6P; higher = faster cleavage; RNA array
How it was run: as §1

[4] = variants of: B1; test: self-cleavage kobs at 160 uM GlcN6P; higher = faster cleavage; RNA array
How it was run: as §1

[5] = variants of: B1; test: self-cleavage kobs at 10000 uM GlcN6P; higher = faster cleavage; RNA array
How it was run: as §1

| Variant | self-cleavage kobs at 40 uM GlcN6P [1] [s⁻¹] | self-cleavage kobs at 640 uM GlcN6P [2] [s⁻¹] | self-cleavage kobs at 2500 uM GlcN6P [3] [s⁻¹] | self-cleavage kobs at 160 uM GlcN6P [4] [s⁻¹] | self-cleavage kobs at 10000 uM GlcN6P [5] [s⁻¹] |
| --- | --- | --- | --- | --- | --- |
| C8G G43U | < 1e-05 | < 1e-05 | < 1e-05 |  |  |
| G9A U55G | < 1e-05 |  |  | < 1e-05 |  |
| G7U U49A A52C G60C C61U | < 1e-05 | < 1e-05 | < 1e-05 |  | < 1e-05 |
| G9A U55C C71A | < 1e-05 | < 1e-05 | < 1e-05 |  |  |
| G9A C10U A14U U31C G40C C70A | < 1e-05 |  |  |  | < 1e-05 |
| C8U G29C C50A | < 1e-05 | < 1e-05 |  |  |  |
| C8U A15G G35U C67U | < 1e-05 |  |  |  |  |
| C8G G41A | < 1e-05 |  | < 1e-05 | < 1e-05 | < 1e-05 |
| C8A U47C C58G G66U | < 1e-05 |  | < 1e-05 |  | < 1e-05 |
| G9A G13A | < 1e-05 | < 1e-05 | < 1e-05 | < 1e-05 |  |
| C8A G13A U47G G60U | < 1e-05 |  |  |  |  |
| G9C G32C | < 1e-05 | < 1e-05 | < 1e-05 | < 1e-05 | < 1e-05 |
| C8A A12U A39G | < 1e-05 | < 1e-05 |  |  | < 1e-05 |
| G9C C67G | < 1e-05 | < 1e-05 | < 1e-05 | < 1e-05 | < 1e-05 |
| C8U G9A C16U C50U A52U | < 1e-05 |  | < 1e-05 |  | < 1e-05 |
| C8A C58U | < 1e-05 | < 1e-05 | < 1e-05 | < 1e-05 | < 1e-05 |
| G9A C71G | < 1e-05 | < 1e-05 | < 1e-05 | < 1e-05 | < 1e-05 |
| G9A C16G G63A A64G | < 1e-05 | < 1e-05 | < 1e-05 | < 1e-05 |  |
| C8A A15U A36G | < 1e-05 |  |  |  |  |
| C8U A39C G41A A42C C58G A64G G66A | < 1e-05 |  |  |  | < 1e-05 |
| C8A A64U | < 1e-05 | < 1e-05 | < 1e-05 | < 1e-05 | < 1e-05 |

| Variant | self-cleavage kobs at 40 uM GlcN6P [1] [s⁻¹] | self-cleavage kobs at 640 uM GlcN6P [2] [s⁻¹] | self-cleavage kobs at 2500 uM GlcN6P [3] [s⁻¹] | self-cleavage kobs at 160 uM GlcN6P [4] [s⁻¹] | self-cleavage kobs at 10000 uM GlcN6P [5] [s⁻¹] |
| --- | --- | --- | --- | --- | --- |
| G9A A15G | < 1e-05 | < 1e-05 |  | < 1e-05 | 2.27e-05 ± 1.1e-05 |
| G9A U65C | < 1e-05 | < 1e-05 | < 1e-05 | < 1e-05 | < 1e-05 |
| C8U G43A U56C | < 1e-05 |  |  |  | < 1e-05 |
| C8U G13C | < 1e-05 | < 1e-05 |  | < 1e-05 | < 1e-05 |
| C8G C16G G41A U47A | < 1e-05 | < 1e-05 | < 1e-05 |  | < 1e-05 |
| C8G C50A C61G G63A C71G | 8.24e-05 ± 3.5e-05 |  |  |  | 0.000367 ± 0.00014 |
| C8A U30G | < 1e-05 | < 1e-05 | < 1e-05 |  | < 1e-05 |
| G9A C10G C68U | < 1e-05 |  |  |  |  |
| G9A A14C A48C | < 1e-05 |  |  |  |  |
| C8U C68A | < 1e-05 | < 1e-05 | < 1e-05 |  |  |
| G7U U56A | < 1e-05 | < 1e-05 |  | < 1e-05 | < 1e-05 |
| C8U G43A | < 1e-05 |  |  | < 1e-05 |  |
| C8U G32A G41U | < 1e-05 | < 1e-05 | < 1e-05 | < 1e-05 | < 1e-05 |
| C8A A15U | < 1e-05 | < 1e-05 | < 1e-05 | < 1e-05 | < 1e-05 |
| C8U A42G | < 1e-05 |  |  | < 1e-05 | < 1e-05 |
| C8U A42C | < 1e-05 | < 1e-05 | < 1e-05 | < 1e-05 | < 1e-05 |
| C8A U25C G37U U69G | 0.000134 ± 3.6e-05 | 0.000488 ± 0.00011 |  |  |  |
| C8A A36U A64U C70U | < 1e-05 | < 1e-05 | < 1e-05 |  |  |
| C8U A12G C50U C68G | 3.9e-05 ± 1.6e-05 | 0.00022 ± 8.6e-05 | 0.000476 ± 0.00018 | 0.000221 ± 8.4e-05 | 6.84e-05 ± 1.7e-05 |
| G9C C58G C68A | < 1e-05 |  |  |  |  |
